The target in test [1] is T1, matrix metalloproteinase-9 (MMP-9) (UniProt P14780 107-707, limits assumed). The experiment in a line: SPR (BiaCore-X, CM-5 chip); MMP-9 coupled to the chip, SEQ ID NO:5 polypeptide in PBS flowed over.
In test [2] the target is T1, matrix metalloproteinase-9 (MMP-9). The experiment in a line: SPR (BiaCore-X, CM-5 chip); KA = ka/kd.
Test [3] has the same target. Put plainly: fluoresceinated collagen hydrolysis assay, Dixon plot, competitive inhibition assumed; target MMP-9. As for the experimental part:
(§1) Inhibition of MMPs: The assay employed measured the enzymatic hydrolysis of fluoresceinated collagen by MMP-9 or other matrix metalloproteinases as a function of time. Fluoresceinated collagen at a concentration of 5 μM was added to reaction buffer (50 mM Tris-HCl (pH 7.6), 150 mM NaCl, 5 mM CaCl_2, 0.1 mM NaN_3) and was placed into a Spectrosil quartz fluorimeter cuvette. MMP at a concentration of 0.1 μM was mixed with varying amounts of polypeptide inhibitor (SEQ ID NO:5 or SEQ ID NO:20) and incubated at 25° C. for 10 minutes in order to effect binding. The protein mixture was added to the collagen substrate, and mixed. Fluorescence emission intensity at 520 nm was measured as a function of time using an excitation wavelength of 495 nm in a Shimadzu RF5301 fluorimeter. The fluorescein release assay was used to determine the inhibitory constant (K_i) of the protein based matrix metalloproteinase inhibitor ([I]) according to Segel (1993) by using Dixon plots (1/v vs. [I]), where: […]

Test [4] deals with T2, matrix metalloproteinase-1 (MMP-1) (UniProt P03956 100-469, limits assumed).
T2 sequence (looked up): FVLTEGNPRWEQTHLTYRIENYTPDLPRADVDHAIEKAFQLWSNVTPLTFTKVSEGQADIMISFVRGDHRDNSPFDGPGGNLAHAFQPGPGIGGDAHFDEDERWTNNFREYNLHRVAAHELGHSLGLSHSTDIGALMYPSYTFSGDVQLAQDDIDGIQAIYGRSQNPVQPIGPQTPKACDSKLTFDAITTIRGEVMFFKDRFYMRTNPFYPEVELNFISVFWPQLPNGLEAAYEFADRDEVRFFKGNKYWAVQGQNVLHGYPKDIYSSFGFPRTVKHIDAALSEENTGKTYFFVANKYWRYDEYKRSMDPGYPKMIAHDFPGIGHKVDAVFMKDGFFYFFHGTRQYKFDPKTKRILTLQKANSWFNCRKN
The experiment in a line: fluoresceinated collagen hydrolysis assay, Dixon plot, competitive inhibition assumed; target MMP-1. As for the experimental part:
as §1

T1 sequence (P14780 107-707 limits assumed): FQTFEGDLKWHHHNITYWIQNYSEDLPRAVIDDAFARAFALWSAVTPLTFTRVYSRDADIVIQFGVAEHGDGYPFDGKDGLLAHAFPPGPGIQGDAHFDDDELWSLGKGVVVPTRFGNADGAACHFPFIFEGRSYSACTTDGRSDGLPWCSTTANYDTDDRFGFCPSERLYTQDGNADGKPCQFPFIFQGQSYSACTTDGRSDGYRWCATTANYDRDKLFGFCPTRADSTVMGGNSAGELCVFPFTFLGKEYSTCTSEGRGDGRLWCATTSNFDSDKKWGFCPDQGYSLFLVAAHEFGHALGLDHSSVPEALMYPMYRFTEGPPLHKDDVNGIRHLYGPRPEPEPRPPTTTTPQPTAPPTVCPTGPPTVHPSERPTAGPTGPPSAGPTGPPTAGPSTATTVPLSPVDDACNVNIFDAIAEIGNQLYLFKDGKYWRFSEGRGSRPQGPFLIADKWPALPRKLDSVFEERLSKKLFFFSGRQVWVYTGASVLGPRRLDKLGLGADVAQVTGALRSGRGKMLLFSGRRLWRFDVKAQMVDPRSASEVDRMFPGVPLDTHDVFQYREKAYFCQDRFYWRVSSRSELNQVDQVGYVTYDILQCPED

B1: SEQ ID NO:5 polypeptide (DST; Delta Synthetic TIMP), purified Fraction IV protein (designed binder)
chain: CSCSPVHPQQAFSNADVVIRAKAVSEKEVDSGNDIYGNPIKRIQYEIKQIKMFKGPEKDIEFIYTAPSSAVCGVSLDVGGKKEYCIAGKAEGDGKMHITLCDFICPW
notes: It was expressed in E. coli as an MBP fusion and cleaved with Factor Xa; It is monomeric by gel filtration; Three disulfide bonds; also called DST protein
For the molecule B1, in test [1], the dissociation rate constant (koff) stood at 0.0013 s⁻¹. The molecule also came in with a kon in test [1] of 200000 M⁻¹ s⁻¹. In addition, the Ka in test [2] was 1.5e+08 M⁻¹. The figures for the inhibition constant (Ki) in test [3] and in test [4] were 16 nM and 12 nM, respectively.

Source of the values: patent US7060795 (KIMBERLY CLARK WORLDWIDE, dated 2006).
